Measured values from US20140162292A1 (TOKYO METROPOLITAN INSTITUTE OF MEDICAL SCIENCE, published 2014).
Where no end group is shown, it is not given here. [ ]: non-standard residue; d: D form. pS = N[C@@H](COP(=O)(O)O)C(=O)O

B1: non-phosphorylated KIR (348-VDPSTGELQ-356) of mouse p62 (peptide)
peptide: VDPSTGELQ
notes: also called non-phosphorylated p62-KIR; KIR in mouse non-phosphorylated p62
B2: phosphorylated KIR (VDP(pS)TGELQ) of mouse p62 (peptide)
peptide: VDP[pS]TGELQ
notes: also called phosphorylated p62-KIR; KIR in mouse phosphorylated p62

Columns and labels:
[1] = biological target: T1, mouse Keap1-DC (aa321-609) (mouse, UniProt Q9Z2X8 321-609); experiment: isothermal titration calorimetry, 25 C, peptide injected into Keap1-DC
T1 construct: also called Keap1-DC domain
Description: (§1) First, isothermal titration calorimetry was performed using MicroCal iTC₂₀₀ System (GE Healthcare) at 25° C. […] The binding data were analyzed using Origin 7 software (GE healthcare).

[2] = biological target: T1, mouse Keap1-DC (aa321-609); experiment: isothermal titration calorimetry
Description: as §1

T1 sequence (Q9Z2X8 321-609 limits assumed): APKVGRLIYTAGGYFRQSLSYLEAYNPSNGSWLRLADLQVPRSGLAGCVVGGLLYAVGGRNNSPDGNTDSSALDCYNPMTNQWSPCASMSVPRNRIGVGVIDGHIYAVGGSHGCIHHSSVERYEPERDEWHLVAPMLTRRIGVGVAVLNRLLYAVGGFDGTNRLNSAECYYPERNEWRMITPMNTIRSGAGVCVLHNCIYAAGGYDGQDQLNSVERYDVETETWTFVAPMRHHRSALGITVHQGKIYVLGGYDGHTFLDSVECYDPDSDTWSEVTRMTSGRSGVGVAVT

Binder | Ka [1] | fold binding affinity against KIR in the non-phosphorylated p62 [2]
B1 | 56700 M⁻¹ | –
B2 | 5.12e+06 M⁻¹ | ~100 times
LDEETGEFL (also called ETGE motif of mouse Nrf2) [Nrf2-ETGE motif (76-LDEETGEFL-84) of mouse Nrf2] | 6.83e+06 M⁻¹ | –
